Experimental data as given in patent US9068000B2, “Monoclonal antibodies for enhancing or inhibiting insulin-like growth factor-I” (The University of North Carolina at Chapel Hill, priority 2004, dated 2015).
No end group written: not given here.

B1: connective tissue growth factor (protein)
chain: QNCSGPCRCPDEPAPRCPAGVSLVLDGCGCCRVCAKQLGELCTERDPCDPHKGLFCHFGSPANRKIGVCTAKDGAPCIFGGTVYRSGESFQSSCKYQCTCLDGAVGCMPLCSMDVRLPSPDCPFPRRVKLPGKCCEEWVCDEPKDQTVVGPALAAYRLEDTFGPDPTMIRANCLVQTTEWSACSKTCGMGISTRVTNDNASCRLEKQSRLCMVRPCEADLEENIKKGKKCIRTPKISKPIKFELSGCTSMKTYRAKFCGVCTDGRCCTPHRTTTLPVEFKCPDGEVMKKNMMFIKTCACHYNCPGDNDIFESLYYRKMYGDMA

Assays:
IGF-I = IGF-I biologic actions (DNA synthesis, cell migration, protein synthesis); type: cell-based
Procedure: Cell Replication. Smooth muscle and/or endothelium are plated at relatively low density, 10^4/cm^2 in low serum (0.2%) containing medium. 24 hr after plating, cells are quiesced in 0.2% platelet poor plasma containing medium. 24 hr later the cultures are exposed to increasing concentrations of IGF-I between 0 and 100 ng/ml and the β3 agonists or antagonists. After 48 hr, the cell cultures are stained with trypan blue and the cell number is determined by manual counting. If β3 is occupied by an agonist then there is at least a 2 fold increase in cell number over this time period. Whereas if an antagonist is added there is often less than 20% increase in cell number.
Cell Migration. Confluent quiescent smooth muscle or endothelial cell cultures are wounded with a razor blade as described in Maile L A, Imai Y, Clarke J B, Clemmons D R, J. Biol. Chem., 277:1800-1805 (2002). The wounds are examined to determine that a straight edge has been obtained and there are no grooves in the plate. At least five areas that are correctly wounded are then identified with a color marker. IGF-I is added at concentrations of either 50 or 100 ng/ml and various concentrations of the angonists or antagonists are added to at least duplicate cultures. After 72 hr the number of cells that have migrated at least 50 microns from the wound edge are determined and counted following staining with methylene blue. […]

IGF-I receptor = assay: Activation of the IGF-I receptor by IGF-I; type: cell-based
Description: (§1) Modification of IGF-I actions. […] These assays include but are not totally limited to the following: β3 subunit phosphorylation, β3 binding to SHPS-1, and integrin associated protein (IAP) as a complex, the association of IAP with SHPS-1, SHPS-1 phosphorylation and Shc recruitment to SHPS-1, Shc phosphorylation, stimulation of DNA synthesis and cell replication or cell migration. Ligands that bind to β3 through the cysteine loop domain often induce both conformational changes and β3 phosphorylation. Similarly, stimulation of β3 phosphorylation can induce a conformational change in β3 secondarily. β3 phosphorylation is measured by applying the compound that binds to β3 to smooth muscle and endothelial cells in culture. […] The lysates are either analyzed directly by immunoblotting for β3 to measure […] or immunoprecipitated with an anti β3 antibody and then immunoblotted for phosphotyrosine. Immunoblotting is analyzed following separation of the proteins contained in 30 μl of cell lysate by SDS polyacrylamide gel electrophoresis (SDS-PAGE). […] The amount of phosphorylated β3 is then determined by SDS-PAGE followed by immunoblotting with a monoclonal anti-phosphotyrosine antibody (PY99) (Ling Y, Maile L A, Clemmons D R, Mol Endocrinol, 17:1824-1833 (2003)).

β3 phosphorylation = assay: β3 phosphorylation, SHP-2 transfer and enhancement of IGF-I receptor activation; type: cell-based
Description: as §1

αVβ3 integrin = αVβ3 integrin (Homo sapiens, UniProt P05106); assay: Binding of peptides/ligands to the cysteine loop region of αVβ3
Description: As noted above, the agonists bind to a specific region on the αVβ3 integrin receptor that has not been identified previously as a region that would result in receptor activation. All agonists that we have determined to bind in this region contain a region of sequence that is commonly termed a heparin binding domain. This heparin binding domain is present in 5 ligands that we have found to date that bind to this region of αVβ3. The documentation that they bind to a specific region of αVβ3 has been provided by two types of experiments. First we have a polyclonal antibody that is known to react with this region of αVβ3, which is the region of the β3 subunit that is located between amino acids at positions 177 and 183.
A more definitive experiment was conducted in which the identical region of the β1 integrin was substituted by mutagenesis for this […] amino acid region within β3. […] Binding assays were then conducted using these ligands.

Sequence of αVβ3 integrin (P05106 27-788): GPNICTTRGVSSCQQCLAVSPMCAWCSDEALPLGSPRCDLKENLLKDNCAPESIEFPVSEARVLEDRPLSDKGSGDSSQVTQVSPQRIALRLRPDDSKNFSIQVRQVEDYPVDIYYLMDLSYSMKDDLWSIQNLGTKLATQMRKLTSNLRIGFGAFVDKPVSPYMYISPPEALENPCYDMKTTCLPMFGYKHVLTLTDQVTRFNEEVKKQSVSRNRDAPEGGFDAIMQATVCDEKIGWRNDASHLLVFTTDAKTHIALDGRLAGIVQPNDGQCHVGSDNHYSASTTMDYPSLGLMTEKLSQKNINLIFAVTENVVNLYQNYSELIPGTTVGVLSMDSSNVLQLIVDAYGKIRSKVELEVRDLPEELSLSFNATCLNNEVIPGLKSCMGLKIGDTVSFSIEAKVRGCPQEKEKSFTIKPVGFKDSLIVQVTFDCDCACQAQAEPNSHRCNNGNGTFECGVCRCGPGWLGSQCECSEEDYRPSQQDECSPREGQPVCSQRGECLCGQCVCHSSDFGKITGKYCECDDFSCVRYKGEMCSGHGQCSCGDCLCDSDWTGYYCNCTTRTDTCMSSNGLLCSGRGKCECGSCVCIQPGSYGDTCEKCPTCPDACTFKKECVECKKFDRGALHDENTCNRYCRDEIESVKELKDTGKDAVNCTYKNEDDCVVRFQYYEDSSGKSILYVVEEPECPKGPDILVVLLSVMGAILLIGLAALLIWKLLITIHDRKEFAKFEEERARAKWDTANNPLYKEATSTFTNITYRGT
Sequence of αVβ3 integrin (P06756 31-889 partner limits assumed): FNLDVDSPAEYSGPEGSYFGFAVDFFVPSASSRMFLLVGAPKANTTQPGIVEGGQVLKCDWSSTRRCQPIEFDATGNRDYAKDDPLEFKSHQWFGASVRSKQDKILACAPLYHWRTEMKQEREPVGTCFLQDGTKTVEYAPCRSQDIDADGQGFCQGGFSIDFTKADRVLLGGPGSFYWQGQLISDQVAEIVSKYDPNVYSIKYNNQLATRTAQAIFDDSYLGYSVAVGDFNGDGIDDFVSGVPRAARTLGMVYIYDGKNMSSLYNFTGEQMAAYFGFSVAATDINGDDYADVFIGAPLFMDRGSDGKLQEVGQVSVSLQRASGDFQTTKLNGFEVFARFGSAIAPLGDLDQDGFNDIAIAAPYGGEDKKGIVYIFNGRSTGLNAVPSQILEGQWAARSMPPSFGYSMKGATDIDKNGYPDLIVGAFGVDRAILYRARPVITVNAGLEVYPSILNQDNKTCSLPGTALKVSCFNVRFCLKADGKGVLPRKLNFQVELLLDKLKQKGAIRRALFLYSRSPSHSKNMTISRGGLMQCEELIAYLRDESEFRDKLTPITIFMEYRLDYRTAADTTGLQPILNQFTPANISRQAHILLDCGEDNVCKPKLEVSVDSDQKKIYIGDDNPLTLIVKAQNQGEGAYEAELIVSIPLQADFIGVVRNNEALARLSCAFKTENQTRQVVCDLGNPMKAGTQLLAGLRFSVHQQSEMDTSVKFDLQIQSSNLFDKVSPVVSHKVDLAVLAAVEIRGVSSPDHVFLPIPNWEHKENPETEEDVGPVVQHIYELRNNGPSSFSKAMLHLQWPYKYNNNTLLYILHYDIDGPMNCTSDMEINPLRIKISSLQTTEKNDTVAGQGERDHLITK
Sequence of αVβ3 integrin (P06756 891-1048 partner limits assumed): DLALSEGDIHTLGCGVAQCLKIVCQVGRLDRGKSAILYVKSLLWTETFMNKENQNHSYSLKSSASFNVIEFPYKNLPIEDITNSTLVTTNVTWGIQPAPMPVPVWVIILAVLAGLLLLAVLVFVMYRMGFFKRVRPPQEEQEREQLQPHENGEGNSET

Row | Molecule | binding to αVβ3 / β3 cysteine loop region (αVβ3 integrin) | further results
1 | KKQRFRHL (Synthetic IGF-I antagonist) [IGF-I antagonist peptide] | – | inhibitory activity on IGF-I actions in biologic assays (IGF-I): inhibitory activity; inhibition of activation of the IGF-I receptor by IGF-I (IGF-I receptor): approximately 60%
2 | KKQRFRHR (AlphaV beta3 binding sequence from vitronectin) | – | stimulation of β3 phosphorylation, SHP-2 transfer to downstream signaling molecules and enhancement of IGF-I receptor activation in response to IGF-I (β3 phosphorylation): full stimulation
3 | cyclized peptide containing this sequence: a cyclized peptide containing the sequence KKQRFRHL (also: cyclized, mode and places not given here) | – | inhibitor potency compared with linear KKQRFRHL (IGF-I): more potent inhibitor
4 | heparin binding epidermal growth factor | shown to bind | –
5 | insulin-like binding protein-5 (RKGFYKRK) [IGFBP-5] | shown to bind | –
6 | osteopontin | shown to bind | –
7 | vitronectin | shown to bind | –
8 | B1 | shown to bind | –
